A word on the Kd: it is the equilibrium constant for the complex coming apart. Low readings indicate tighter binding, high ones weaker binding. The term koff denotes the first-order rate constant of dissociation. Read a high koff as fast dissociation. In general, kon refers to the second-order rate constant of association. A higher kon goes with fast association. By EC50 is commonly meant the midpoint of the concentration-response curve.

Where a chain is given by its changes, count along the chain named.

Experiment [1] has as its target T1, human PRLR (Biacore antigen) (human, UniProt P16471 25-234, limits assumed).
T1 construct: The construct injected over captured antibody is not described (a soluble form is likely); also called huPRLR
T1 sequence: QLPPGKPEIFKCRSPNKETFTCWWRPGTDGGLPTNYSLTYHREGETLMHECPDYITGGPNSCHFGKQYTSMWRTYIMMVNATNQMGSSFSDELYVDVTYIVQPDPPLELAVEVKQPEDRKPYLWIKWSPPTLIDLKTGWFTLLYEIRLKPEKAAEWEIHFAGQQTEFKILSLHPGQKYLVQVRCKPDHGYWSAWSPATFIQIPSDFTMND
The experiment can be described thus: SPR Biacore.

The target in experiment [2] is T2, murine PRLR (Biacore antigen) (murine, UniProt Q08501 20-229, limits assumed).
T2 construct: also called muPRLR
T2 sequence (looked up): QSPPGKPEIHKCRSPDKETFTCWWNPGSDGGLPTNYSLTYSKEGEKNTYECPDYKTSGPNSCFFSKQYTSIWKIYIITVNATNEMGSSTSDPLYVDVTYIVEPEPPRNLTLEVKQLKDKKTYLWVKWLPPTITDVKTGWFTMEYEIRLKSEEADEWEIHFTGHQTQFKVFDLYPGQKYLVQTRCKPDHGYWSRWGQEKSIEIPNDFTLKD
The experiment can be described thus: SPR Biacore. The procedure, abridged: (§1)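 Association rate, dissociation rate and dissociation constant were measured by surface plasmon resonance on a Biacore instrument. PRLR antigen was tested at 600 nM, 66.67 nM and 7.41 nM, a 3-point, 9-fold dilution series. Constants came from a 1:1 binding model fit (local Rmax, mass-transport term included) in Biacore T200 Evaluation Software.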
A general note: Surface plasmon resonance follows binding to a sensor surface in real time, without labels.

Experiment [3] addresses T1, human PRLR (Biacore antigen). The experiment can be described thus: SPR Biacore. The procedure, abridged: as §1
The source holds these as a separate data set.

Experiment [4] addresses T3, cyno PRLR (Biacore antigen) (cyno, UniProt A0A2K5WXK1 25-234).
T3 construct: also called cyPRLR
T3 sequence: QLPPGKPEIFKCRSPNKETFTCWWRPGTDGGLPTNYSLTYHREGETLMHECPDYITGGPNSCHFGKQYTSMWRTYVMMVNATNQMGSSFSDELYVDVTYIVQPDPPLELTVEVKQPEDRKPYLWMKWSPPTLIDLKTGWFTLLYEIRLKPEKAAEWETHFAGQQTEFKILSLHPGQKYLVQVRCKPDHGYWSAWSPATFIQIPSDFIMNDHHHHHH
The experiment can be described thus: SPR Biacore. In a few lines:
as §1

For experiment [5], the target named is T4, human PRLR on cells (human, UniProt P16471 25-622).
T4 sequence: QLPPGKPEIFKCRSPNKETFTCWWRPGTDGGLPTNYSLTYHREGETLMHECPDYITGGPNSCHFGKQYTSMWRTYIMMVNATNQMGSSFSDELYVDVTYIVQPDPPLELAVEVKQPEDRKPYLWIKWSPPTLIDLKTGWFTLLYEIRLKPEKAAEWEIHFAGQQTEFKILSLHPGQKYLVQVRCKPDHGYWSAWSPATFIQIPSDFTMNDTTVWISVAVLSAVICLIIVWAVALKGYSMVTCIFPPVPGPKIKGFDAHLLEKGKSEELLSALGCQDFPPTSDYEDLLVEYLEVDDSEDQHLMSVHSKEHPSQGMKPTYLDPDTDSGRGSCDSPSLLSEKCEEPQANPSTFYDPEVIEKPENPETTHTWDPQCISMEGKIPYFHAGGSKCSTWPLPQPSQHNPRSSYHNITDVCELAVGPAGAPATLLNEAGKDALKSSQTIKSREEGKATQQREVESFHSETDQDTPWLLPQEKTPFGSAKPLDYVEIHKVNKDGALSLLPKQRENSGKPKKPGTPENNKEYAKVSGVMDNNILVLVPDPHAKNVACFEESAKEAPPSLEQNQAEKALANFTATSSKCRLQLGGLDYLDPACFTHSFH
The experiment can be described thus: cell-based or functional assay.

Experiment [6] addresses T5, mouse PRLR on Baf3-mPRLR cells (mouse, UniProt Q08501 20-608).
T5 sequence (looked up): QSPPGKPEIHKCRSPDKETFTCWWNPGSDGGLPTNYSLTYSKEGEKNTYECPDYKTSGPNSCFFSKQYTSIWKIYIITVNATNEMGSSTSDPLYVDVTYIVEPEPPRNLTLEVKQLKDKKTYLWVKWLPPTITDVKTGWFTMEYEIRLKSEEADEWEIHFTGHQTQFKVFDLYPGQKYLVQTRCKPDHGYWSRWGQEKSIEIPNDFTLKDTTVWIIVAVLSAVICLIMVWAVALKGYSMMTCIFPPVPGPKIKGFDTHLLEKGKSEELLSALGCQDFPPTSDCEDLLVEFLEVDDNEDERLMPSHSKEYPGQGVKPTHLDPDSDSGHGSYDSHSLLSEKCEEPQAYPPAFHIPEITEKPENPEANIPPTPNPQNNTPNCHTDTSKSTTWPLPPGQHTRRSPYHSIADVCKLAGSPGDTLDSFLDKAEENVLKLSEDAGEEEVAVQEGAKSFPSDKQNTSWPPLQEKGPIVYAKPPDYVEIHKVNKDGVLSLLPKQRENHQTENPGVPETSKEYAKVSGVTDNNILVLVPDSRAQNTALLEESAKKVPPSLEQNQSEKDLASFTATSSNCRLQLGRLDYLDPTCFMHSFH
The experiment can be described thus: cell-based or functional assay.

Experiment [7] has as its target cyno PRLR on Baf3-cyPRLR cells (cyno). The experiment can be described thus: cell-based or functional assay.
For experiment [8], the target named is T6, human PRLR ECD-Fc fusion protein (human, UniProt P16471 25-233).
T6 construct: not shown: Fc region (captured by goat anti-human Fc)
T6 sequence: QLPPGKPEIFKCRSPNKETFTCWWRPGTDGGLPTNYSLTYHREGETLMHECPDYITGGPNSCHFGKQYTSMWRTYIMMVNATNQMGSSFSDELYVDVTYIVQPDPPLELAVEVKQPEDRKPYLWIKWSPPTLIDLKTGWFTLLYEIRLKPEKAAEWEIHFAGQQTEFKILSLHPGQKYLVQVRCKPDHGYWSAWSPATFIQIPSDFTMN
The experiment can be described thus: ELISA on ECD. The procedure, abridged:
(§2)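 EC50 values derive from fitted binding curves of antibody serial dilutions (1 h) on captured PRLR. Detection used an HRP-conjugated secondary (1 h), TMB development for 3–5 min, an H₂SO₄ stop and a 450 nm read, with all steps in Tween/PBS pH 7.4 buffer.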

The target of experiment [9] is T7, cyno PRLR ECD-his6 protein (cyno).
T7 chain: T3 sequence
The experiment can be described thus: ELISA on ECD. In a few lines: as §2

Experiment [10] concerns the target T8, rat PRLR on Nb2-11 rat lymphoma cells (rat, UniProt P05710 20-610).
T8 sequence (looked up): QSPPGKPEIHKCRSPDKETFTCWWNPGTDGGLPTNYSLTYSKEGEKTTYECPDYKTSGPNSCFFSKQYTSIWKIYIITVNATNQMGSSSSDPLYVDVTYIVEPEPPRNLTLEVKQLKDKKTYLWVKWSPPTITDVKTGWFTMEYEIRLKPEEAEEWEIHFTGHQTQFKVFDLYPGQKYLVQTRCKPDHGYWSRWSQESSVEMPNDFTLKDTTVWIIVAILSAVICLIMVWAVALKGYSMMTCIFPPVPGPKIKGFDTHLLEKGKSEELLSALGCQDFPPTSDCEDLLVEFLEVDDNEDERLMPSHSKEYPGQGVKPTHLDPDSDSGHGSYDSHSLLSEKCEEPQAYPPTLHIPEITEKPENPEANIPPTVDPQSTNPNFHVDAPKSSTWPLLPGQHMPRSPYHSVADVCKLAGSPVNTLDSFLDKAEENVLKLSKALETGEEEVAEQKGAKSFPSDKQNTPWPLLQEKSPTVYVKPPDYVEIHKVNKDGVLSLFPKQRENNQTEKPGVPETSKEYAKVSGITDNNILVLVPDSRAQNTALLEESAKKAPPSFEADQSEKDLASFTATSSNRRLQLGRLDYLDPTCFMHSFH
The experiment can be described thus: cell-based or functional assay.

Experiment [11] addresses T4, human PRLR on cells. The experiment can be described thus: FACS T47D 10 ug/mL.
Experiment [12] addresses T5, mouse PRLR on Baf3-mPRLR cells. The experiment can be described thus: FACS Baf3-mPRLR 10 ug/mL. How it is done:
(§3) Nb2-11 and Baf3-xPRLR cells were resuspended in FACS buffer (PBS+1% FBS) at 2 millions cells/mL. Cells were added to round bottom 96-well plate (100 uL/well) and treated with testing PRLR antibodies for 1 hr at 4 C. Cells were then washed with FACS buffer twice and incubated with 2nd antibody conjugated to ALEXA488 (Invitrogen) for 1 hr at 4 C. After two washes in FACS buffer, cells were resuspended in 1% formaldehyde in PBS. Cells were analyzed using LSRII flowcytometer.

In experiment [13] the target is T8, rat PRLR on Nb2-11 rat lymphoma cells. The experiment can be described thus: FACS Nb2-11 20 ug/mL. On the procedure:
as §3

B1: Ab36 (antibody, human IgG1, kappa, V domains shown)
VH: EVQLVQSGAEVKKPGSSVKVSCKASGYTFTSYWIHWVRQAPGQGLEWMGEIDPSDSYTNYNQKFKGRVTITADKSTSTAYMELSSLRSEDTAVYYCARSFFTNWFAYWGQGTLVTVSS
VL: DVVMTQTPLSLSVTPGQPASISCRSSQSLVHSNGNTYLHWYLQKPGQSPQLLIYKVSNRFSGVPDRFSGSGSGTDFTLKISRVEAEDVGVYFCSQSTHVPFTFGGGTKVEIKR
notes: humanized from Ab7; G1; also called Ab4 HC.1 and Ab4 LC.1a
Turning to B1, the “fold decrease in affinity against chAb7” value in experiment [1] was roughly 45 fold. For the same molecule, the Kd in [2] stood at 1140 nM; in [3], 8.13 nM; in experiment [4], 8.51 nM. Moreover, the koff in experiment [2] turned out to be 0.0568 s⁻¹; in [3], 0.00128 s⁻¹; in [4] it was 0.00114 s⁻¹. Also, the kon was found to be 49800 M⁻¹ s⁻¹ in experiment [2], 157000 M⁻¹ s⁻¹ in [3] and 133000 M⁻¹ s⁻¹ in [4]. The “Baf3-hPRLR proliferation IC50” value in the experiment with human PRLR on cells [5] turned out to be 0.28 µg/mL. In addition, the “Baf3-mPRLR proliferation IC50” value in [6] is greater than 30 µg/mL. Also, in experiment [7], the “Baf3-cyPRLR proliferation IC50” value is 0.41 µg/mL. Besides, the EC50 amounted to 0.556 nM in experiment [8] and 0.538 nM in [9].

B2: Ab55 (antibody, human IgG1, kappa, V domains shown)
VH: B1 VH with M48I, V68A, I70L, A72V, K74R, T76S, A97G
VL: B1 VL
notes: humanized from Ab7 (back mutations on Ab39); G1; also called Ab4 HC.1a.2 and Ab4 LC.1a
Turning to B2, the “fold weaker affinity than chAb7” value in [1] was roughly 4 fold. Also, the Kd in experiment [2] turned out to be 140 nM; in experiment [3], 0.67 nM; in experiment [4], 0.59 nM. The koff in experiment [2] was found to be 0.0063 s⁻¹; in [3], 0.00012 s⁻¹; in [4] it was 9.8e-05 s⁻¹. The on-rate (kon) in [2] turned out to be 44000 M⁻¹ s⁻¹; in experiment [3], 170000 M⁻¹ s⁻¹; in [4], 170000 M⁻¹ s⁻¹. Further, the “Baf3-hPRLR proliferation IC50” value in the experiment with human PRLR on cells [5] is 0.92 µg/mL.

B3: Ab54 (antibody, human IgG1, kappa, V domains shown)
VH: B1 VH with M48I, V68A, I70L, A72V, T76S, A97G
VL: B1 VL
notes: humanized from Ab7 (back mutations on Ab39); G1; also called Ab4 HC.1a.3 and Ab4 LC.1a
Turning to B3, the “fold weaker affinity than chAb7” value in experiment [1] was roughly 5 fold. In [2], this molecule yielded a Kd of 170 nM, a koff of 0.007 s⁻¹ and a kon of 41000 M⁻¹ s⁻¹. Further, in experiment [3], the Kd was 1 nM, the koff amounted to 0.00014 s⁻¹ and the kon amounted to 140000 M⁻¹ s⁻¹. In addition, in experiment [4], binding was put at a Kd of 0.85 nM, the koff is 0.00012 s⁻¹ and the kon was found to be 140000 M⁻¹ s⁻¹. Also, the “Baf3-hPRLR proliferation IC50” value with human PRLR on cells [5] is 0.77 µg/mL.

B4: Ab9 (antibody, V domains shown)
VH: EVQLQQSGPELVRPGASVKISCKASGYSFTDYNMHWVKQSHGKSLEWIGYIYPYNGGAGYNQKFKSKATMNVGISSSTAYMELRSLTSEDSAVYYCARGDGNYVGDMDYWGQGTSVTVSS
VL: DIQMTQSPASLSASVGETVTITCRASENIYSYLAWYQQKQGKSPQLLVYNAKTLAEGVPSRFSGSGSGTQFSLKINSLQPEDFGSYYCQHHSGTPFTFGSGTKLEIK
notes: murine monoclonal, isotype G2b; also called murine Ab9
In experiment [3], B4 registered a Kd of 0.226 nM, a koff of 0.000131 s⁻¹ and a kon of 577000 M⁻¹ s⁻¹. The “Nb2-11 proliferation IC50” value in experiment [10] was greater than 30 µg/mL. Besides, in the experiment with human PRLR on cells [5], the “Baf3-hPRLR proliferation IC50” value was 0.51 µg/mL and the “T47D pPRLR ELISA IC50” value worked out at 0.072 µg/mL. In experiment [6], the “Baf3-mPRLR proliferation IC50” value is greater than 30 µg/mL. The “Baf3-cyPRLR proliferation IC50” value in experiment [7] is 6.4 µg/mL. Moreover, the “FACS GeoMean-neg” value with human PRLR on cells [11] turned out to be 1870. For the same molecule, the midpoint of the response in [8], the EC50, lay at 0.072 nM. Further, the “FACS GeoMean-neg” value in [12] was determined as 1. For the same molecule, the “FACS GeoMean-neg” value in [13] was determined as 0.

Values taken from US20170022281A1 (AbbVie / Abbott, published 2017).
